This note sets out measurements from IntAct's records for PubMed 21575865.

Sequences and labels used below:
B1: Transcriptional regulator ERG (Homo sapiens), P11308-1 (parent)
chain: MIQTVPDPAAHIKEALSVVSEDQSLFECAYGTPHLAKTEMTASSSSDYGQTSKMSPRVPQQDWLSQPPARVTIKMECNPSQVNGSRNSPDECSVAKGGKMVGSPDTVGMNYGSYMEEKHMPPPNMTTNERRVIVPADPTLWSTDHVRQWLEWAVKEYGLPDVNILLFQNIDGKELCKMTKDDFQRLTPSYNADILLSHLHYLRETPLPHLTSDDVDKALQNSPRLMHARNTDLPYEPPRRSAWTGHGHPTPQSKAAQPSPSTVPKTEDQRPQLDPYQILGPTSSRLANPGSGQIQLWQFLLELLSDSSNSSCITWEGTNGEFKMTDPDEVARRWGERKSKPNMNYDKLSRALRYYYDKNIMTKVHGKRYAYKFDFHGIAQALQPHPPESSLYKYPSDLPYMGSYHAHPQKMNFVAPHPPALPVTSSSFFAAPNPYWNSPTGGIYPNTRLPTSHMPSHLGTYY

The variants in this experiment derive from B1. The note with it: with prkdc_human PRKDC.
Turning to MIQTVPDPAAHIKEALSVVSEDQSLFECAYGTPHLAKTEMTASSSSDYGQTSKMSPRVPQQDWLSQPPARVTIKMECNPSQVNGSRNSPDECSVAKGGKMVGSPDTVGMNYGSYMEEKHMPPPNMTTNERRVIVPADPTLWSTDHVRQWLEWAVKEYGLPDVNILLFQNIDGKELCKMTKDDFQRLTPSYNADILLSHLHYLRETPLPHLTSDDVDKALQNSPRLMHARNTDLPYEPPRRSAWTGHGHPTPQSKAAQPSPSTVPKTEDQRPQLDPYQILGPTSSRLANPGSGQIQLWQFLLELLSDSSNSSCITWEGTNGEFKMTDPDEVARRWGERKSKPNMNYDKLSRALRYYADKNIMTKVHGKRYAYKFDFHGIAQALQPHPPESSLYKYPSDLPYMGSYHAHPQKMNFVAPHPPALPVTSSSFFAAPNPYWNSPTGGIYPNTRLPTSHMPSHLGTYY [Y356A], the “effect of a mutation on the interaction” value is listed as “disrupting interaction”.
